Patent publication US20120070446A1 (AstraZeneca / MedImmune, published 2012)

How the values were obtained:
[1] = molecular target: F protein of RSV A2 virus (on virus particles, neutralization assay) (Respiratory Syncytial Virus A2, UniProt P03420 26-574); assay: cell-based or functional assay
[2] = molecular target: T1, HIS-tagged recombinant F protein from RSV Long strain (Respiratory Syncytial Virus Long strain, UniProt P12568 26-524); assay: direct ELISA, HIS-tagged F on Ni-NTA HisSorp plates
T1 construct: also called recombinant HIS tagged F protein; recombinant RSV F Long strain containing a poly HIS tag; not shown: poly HIS tag
T1 sequence (P12568 26-524): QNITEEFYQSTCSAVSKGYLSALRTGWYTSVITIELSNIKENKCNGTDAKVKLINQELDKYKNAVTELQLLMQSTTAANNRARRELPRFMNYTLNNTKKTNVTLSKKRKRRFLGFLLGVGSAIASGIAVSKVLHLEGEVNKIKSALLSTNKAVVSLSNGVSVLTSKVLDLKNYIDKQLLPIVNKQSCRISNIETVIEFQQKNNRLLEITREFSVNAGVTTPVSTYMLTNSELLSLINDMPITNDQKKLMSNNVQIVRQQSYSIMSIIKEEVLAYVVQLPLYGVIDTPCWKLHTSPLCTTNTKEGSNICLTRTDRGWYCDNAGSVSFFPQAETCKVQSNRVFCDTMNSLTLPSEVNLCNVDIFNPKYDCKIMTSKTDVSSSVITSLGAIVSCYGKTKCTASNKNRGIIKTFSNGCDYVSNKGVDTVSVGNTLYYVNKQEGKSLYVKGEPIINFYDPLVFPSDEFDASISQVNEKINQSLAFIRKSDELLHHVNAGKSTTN

Row | Binder | IC50 (ng/ml), RSV neutralizing activity, TCID50 culture assay on HEp2 cells with the RSV A2 virus [1] [ng/mL] | binding result [2]
1 | palivizumab (antibody, V domains shown) VH: QVTLRESGPALVKPTQTLTLTCTFSGFSLSTSGMSVGWIRQPPGKALEWLADIWWDDKKDYNPSLKSRLTISKDTSKNQVVLKVTNMDPADTATYYCARSMITNWYFDVWGAGTTVTVSS VL: DIQMTQSPSTLSASVGDRVTITCKCQLSVGYMHWYQQKPGKAPKLLIYDTSKLASGVPSRFSGSGSGTEFTLTISSLQPDDFATYYCFQGSGYPFTFGGGTKLEIK | 152 | 
2 | AM22 (recombinant AM22 mAb, human IgG1/Kappa) (antibody, V domains shown, also called AM22 antibody; AM22 monoclonal antibody) VH: QVQLVQSGAEVKKPGATVKVSCKISGHTLIKLSIHWVRQAPGKGLEWMGGYEGEVDEIFYAQKFQHRLTVIADTATDTVYMELGRLTSDDTAVYFCGTLGVTVTEAGLGIDDYWGQGTLVTVSS VL: EIVLTQSPGTLSLSPGERATLSCRASQIVSRNHLAWYQQKPGQAPRLLIFGASSRATGIPVRFSGSGSGTDFTLTINGLAPEDFAVYYCLSSDSSIFTFGPGTKVDFK |  | no binding
